Experimental data published in the supplement of paper PMC9732359.
± gives the uncertainty stated by the source.

Assay: protein stability index of a GFP-peptide fusion (yeast GPS) (PSI 1-4); higher = more stable; sorted into four equal gates, so the index is relative within each strain
How it was run: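 Each library plasmid carries Cherry plus GFP with a tiled 17-residue yeast protein peptide fused downstream, and the pooled library was carried in yeast. Mid-log cultures in leucine-free medium were sorted into four equal gates by GFP/Cherry ratio. Reads from Illumina sequencing of PCR-amplified plasmids from each gate were assigned to strains by barcodes. Per peptide, the protein stability index was computed as the summed products of gate read frequency and gate number.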

| Sequence | protein stability index (doa10∆) | protein stability index (pdr5∆) | protein stability index (san1∆) | protein stability index (ubr1∆) |
| --- | --- | --- | --- | --- |
| KKLKAVRIIKHTLDIIN [RPS5] | 2 ± 0.066 | 2.01 ± 0.048 | 1.91 ± 0.057 | 2.36 ± 0.051 |
| TTKRLWSEITESMSYLP [MCD1] | 3.01 ± 0.12 | 2.91 ± 0.095 | 2.99 ± 0.11 | 2.73 ± 0.069 |
| SSDDLQNCWSLINDSYI [SSN8] | 1.94 ± 0.068 | 2.03 ± 0.081 | 1.53 ± 0.11 | 1.74 ± 0.064 |
| RYQHLEKITQISLLCKN [PCI8] | 1.23 ± 0.066 | 1.5 ± 0.051 | 1.25 ± 0.11 | 1.22 ± 0.048 |
| YGDRMKLAKNLQIGDVV [RPO31] | 2.94 ± 0.13 | 3.49 ± 0.21 | 3.34 ± 0.1 | 3.57 ± 0.21 |
| TEGCIGLSQTEAFGNIK [MCD1] | 2.61 ± 0.058 | 2.61 ± 0.076 | 2.81 ± 0.093 | 2.56 ± 0.072 |
| NGGNSVITLAEYEKRNH [SRP68] | 3.57 ± 0.12 | 3.28 ± 0.14 | 3.44 ± 0.1 | 3.38 ± 0.12 |
| LTITKAAGANVDNVWAD [RPP1B] | 2.63 ± 0.089 | 2.26 ± 0.063 | 2.78 ± 0.15 | 2.85 ± 0.059 |
| YDKLPAGQNATVAVMSY [RET1] | 1.17 ± 0.046 | 1.31 ± 0.046 | 1.33 ± 0.13 | 1.18 ± 0.048 |
| EVTKLLKNEGIDLDHKR [SMC4] | 3.08 ± 0.12 | 3.2 ± 0.17 |  | 3.55 ± 0.1 |
| RNVVEDINQAKDFIENV [BRN1] | 3.25 ± 0.13 | 3.31 ± 0.097 | 3.24 ± 0.078 | 3.25 ± 0.072 |
| SSRPNVNTTRRFQYSDD [YMR129W/POM152] | 2.93 ± 0.14 | 3.16 ± 0.11 | 2.4 ± 0.16 | 2.69 ± 0.088 |
| PFPQYPAGMNETPKSNN [ITC1] | 2.7 ± 0.1 | 2.8 ± 0.14 | 2.75 ± 0.087 | 3.01 ± 0.089 |
| FEYCRIDGSTSHEERIE [ISW2] | 2.44 ± 0.047 | 2.23 ± 0.052 | 2.01 ± 0.061 | 2.49 ± 0.05 |
| RSLCEVLVYDDKLEKVT [RPC34] | 2.32 ± 0.09 | 2.62 ± 0.1 | 2.33 ± 0.1 | 2.84 ± 0.093 |
| DEVYVQNSKFLKVNVTL [YJL039C/NUP192] | 2.68 ± 0.064 | 2.78 ± 0.054 | 2.76 ± 0.06 | 2.45 ± 0.039 |
| NVEKYPTFVEFILIPLY [SNU114] | 2.33 ± 0.052 | 2.46 ± 0.054 | 2.04 ± 0.069 | 2.65 ± 0.053 |
| NTGPSTGGLFGAKPAGS [YGL172W/NUP49] | 3.43 ± 0.12 | 3.32 ± 0.11 | 2.67 ± 0.17 |  |
| IFSLLTGYPDEPPAGVA [CYT1] | 2.87 ± 0.18 | 2.52 ± 0.14 | 2.4 ± 0.13 | 2.54 ± 0.09 |
| KGRFAVHRITDEEASYK [RPS4A] | 3.13 ± 0.075 | 3.2 ± 0.091 | 3.35 ± 0.061 | 3.33 ± 0.07 |
| MSSQISSLIPHCITSIT [MTR3] | 1.77 ± 0.061 | 2.08 ± 0.061 | 2.07 ± 0.073 | 2.47 ± 0.075 |
| DITFFGEALPNKFHKSI [SIR2] | 3 ± 0.11 | 2.98 ± 0.1 | 2.61 ± 0.082 | 2.64 ± 0.054 |
| RAHRIGQKNEVRILRLI [SNF2] | 2.26 ± 0.048 | 1.79 ± 0.051 | 2.03 ± 0.058 | 2.23 ± 0.044 |
| WCCRSGSAADTQAIADI [PRE3] | 2.89 ± 0.12 | 3.03 ± 0.099 | 2.85 ± 0.11 | 2.93 ± 0.077 |
| KKTCSSCGYPAAKTRSY [RPL37A] | 2.25 ± 0.27 | 3.17 ± 0.11 | 2.69 ± 0.093 | 3.27 ± 0.11 |
| VIQQDKYQKALHYLKKF [SRP72] | 1.61 ± 0.098 | 1.26 ± 0.079 | 1.2 ± 0.14 | 2.15 ± 0.1 |

| Sequence | protein stability index (doa10∆) | protein stability index (pdr5∆) | protein stability index (san1∆) | protein stability index (ubr1∆) |
| --- | --- | --- | --- | --- |
| SKLAEEKIRAAGGVVEL [RPL28] | 2.85 ± 0.04 | 3.08 ± 0.034 | 3.09 ± 0.037 | 2.943 ± 0.025 |
| LNSMPNNVNEYSYTTIV [YJL039C/NUP192] | 2.69 ± 0.085 | 2.95 ± 0.092 | 2.75 ± 0.075 | 2.6 ± 0.058 |
| GKGRFQTPAEKHAFMGT [RPL3] | 3.13 ± 0.17 | 3.2 ± 0.061 | 2.97 ± 0.1 | 2.98 ± 0.093 |
| PSESEHPIRVLMASVIL [YDL116W/NUP84] | 1.87 ± 0.076 | 1.89 ± 0.064 | 1.75 ± 0.062 | 1.78 ± 0.08 |
| HVRCGTAFALGIACAGK [RPN2] | 1.27 ± 0.081 | 1.58 ± 0.13 | 1.46 ± 0.23 | 1.53 ± 0.076 |
| TVKTSDDYVLRIFAIAF [RPS1A] | 2.534 ± 0.02 | 2.308 ± 0.018 | 2.453 ± 0.023 | 2.55 ± 0.016 |
| HKQVYPLRMETIPILES [DSN1] | 1.73 ± 0.049 | 2.37 ± 0.05 | 2.24 ± 0.066 | 2.14 ± 0.038 |
| VTYSRVSKKVDVRRLKK [BRN1] |  | 1.32 ± 0.14 |  | 3.23 ± 0.15 |
| VLQKVIEWAEHHRDSNF [SKP1] | 3.08 ± 0.078 | 3.14 ± 0.063 | 3.04 ± 0.049 | 3.25 ± 0.062 |
| TTLVTRREELQQRIREI [SMC3] | 3.06 ± 0.2 |  |  |  |
| YIWRYLPAPPVCIRPSV [RPO31] | 1.48 ± 0.14 | 1.27 ± 0.1 |  | 1.2 ± 0.23 |
| YWYWWKNGNEYNEFLYS [QCR8] | 2.62 ± 0.066 | 2.21 ± 0.049 | 2.49 ± 0.06 | 2.56 ± 0.047 |
| FENVKLLAEYDNIYRNL [MED4] | 2.43 ± 0.052 | 2.64 ± 0.045 | 2.62 ± 0.071 | 2.31 ± 0.028 |
| DSVLLNRGNKKRHRSSY [YML031W/NDC1] | 3.03 ± 0.099 | 3.25 ± 0.1 | 3.04 ± 0.06 | 3.15 ± 0.076 |
| EDEENSDVLLFQLPTTC [RGR1] | 2.63 ± 0.044 | 2.27 ± 0.035 | 2.63 ± 0.041 | 2.35 ± 0.024 |
| FDPSKDVLINELLDQVT [CDC53] | 2.74 ± 0.066 | 2.15 ± 0.047 | 2.24 ± 0.087 | 2.5 ± 0.054 |
| PQNMLFEGCYYTPEESA [RPC25] |  | 2.42 ± 0.21 | 2.55 ± 0.21 | 2.5 ± 0.12 |
| ENDVKPISIEAPQFYRY [SWI3] | 2.55 ± 0.038 | 2.14 ± 0.039 | 2.2 ± 0.055 | 1.95 ± 0.035 |
| YQTCKNSEYLKRRVTNL [SMC2] | 2.37 ± 0.071 | 2.09 ± 0.079 | 2.44 ± 0.078 | 2.45 ± 0.073 |
| KVKNFGVWVRYDSRSGT [RPL20A] |  | 2.74 ± 0.1 |  | 2.55 ± 0.24 |
| QDMEAAKEVYKIHQQLL [GAL11] | 3.41 ± 0.22 | 3.41 ± 0.13 | 3.5 ± 0.11 | 3.41 ± 0.12 |
| ALAGSEINWRHASFLCS [FAS1] | 1.77 ± 0.071 | 1.6 ± 0.057 | 1.43 ± 0.092 | 1.84 ± 0.049 |
| KTLSLKSMASAFGVSVA [RPN7] |  |  |  | 1.21 ± 0.13 |
| KKNDEVSKPAFSFGAKA [YJL041W/NSP1] | 3.12 ± 0.14 | 3.02 ± 0.15 | 2.96 ± 0.094 | 3.07 ± 0.099 |
| TSCLQNNNQKIDDNYIV [SRB8] | 3.15 ± 0.072 | 3.1 ± 0.081 | 3.33 ± 0.11 | 3.05 ± 0.062 |
